According to patent publication US20140336363A1 (Hoffmann-La Roche, published 2014):
Positions count from the first letter of the chain named. Like-named read-outs stand apart in the source and are kept apart here.

Legend:
[1] = biological target: CSF-1R ECD (R&D-Systems 329-MR or in-house subcloned pCMV-presS-HisAvitag-hCSF-1R-ECD) (human) (UniProt P07333); experiment: SPR cross-competition, 25 C; second antibody on CSF-1R held by captured Antibody 1; competitor <CSF-1R>10H2.2F12
[2] = biological target: CSF-1R ECD (R&D-Systems 329-MR or in-house subcloned pCMV-presS-HisAvitag-hCSF-1R-ECD) (human) (UniProt P07333); experiment: SPR cross-competition, 25 C; second antibody on CSF-1R held by captured Antibody 1; competitor <CSF-1R>9D11.2E8
[3] = biological target: mutant CSF-1R L301S Y969F (human) (UniProt P07333); experiment: cell-based or functional assay
[4] = biological target: T1, full-length wildtype CSF-1R (wt CSF-1R) (human, UniProt P07333 20-972); experiment: cell-based or functional assay
[5] = biological target: CSF-1R ECD (R&D-Systems 329-MR or in-house subcloned pCMV-presS-HisAvitag-hCSF-1R-ECD) (human) (UniProt P07333); experiment: SPR cross-competition, 25 C; second antibody on CSF-1R held by captured Antibody 1; competitor SC-02, clone 2-4A5
[6] = biological target: CSF-1R ECD (R&D-Systems 329-MR or in-house subcloned pCMV-presS-HisAvitag-hCSF-1R-ECD) (human) (UniProt P07333); experiment: SPR (BIACORE A100), 35 C, antibody captured, CSF-1R ECD in solution
[7] = biological target: huCSF-1R-huFc chimera (soluble extracellular domain) (human) (UniProt P07333); experiment: competition ELISA: antibody on plate-bound huCSF-1R-huFc, then 3 ng/ml CSF-1
CSF-1R ECD (D1-D3) = biological target: T2, CSF-1R ECD (D1-D3) (human, UniProt P07333 20-296, limits assumed); experiment: as in WO2011070024, Example 10 (method not told here)
T2 construct: also called domains D1 to D3 of the extracellular domain of human CSF-1R

[8] = biological target: T3, CSF-1R ECD (R&D-Systems 329-MR or in-house subcloned pCMV-presS-HisAvitag-hCSF-1R-ECD) (human, UniProt P07333 20-517); experiment: SPR (BIACORE A100), 35 C, antibody captured, CSF-1R ECD in solution
T3 construct: also called CSF-1R (R&D-Systems Cat. No. 329-MR); human CSF-1R Extracellular Domain (comprising domains D1 to D5)
Method: CSF-1R ECD (R&D-Systems 329-MR or in-house subcloned pCMV-presS-HisAvitag-hCSF-1R-ECD were added in various concentrations in solution. Association was measured by an CSF-1R-injection of 1.5 minutes at 35° C.; dissociation was measured by washing the chip surface with buffer for 10 minutes at 35° C. Anti CSF-IR SC-02, clone 2-4A5 (Santa Cruz Biotechnology, US; see also Sherr, C. J., et al., Cell 41 (1985) 665-676), which inhibits the ligand-receptor interaction, was used as reference control.

[9] = biological target: T4, huCSF-1R-huFc chimera (soluble extracellular domain) (human, UniProt P07333 20-517); experiment: competition ELISA: antibody on plate-bound huCSF-1R-huFc, then 3 ng/ml CSF-1
T4 construct: Captured on the plate by anti Fc-gamma; also called huCSF-1R ECDhuFc chimera; not shown: human Fc part
Method: At the beginning, plates were coated with […] goat F(ab′)₂ biotinylated anti Fcγ (Jackson ImmunoResearch., Cat. No. 109-006-170) for 1 hour (h).
Thereafter the wells were blocked with PBS supplemented with 0.2% Tween®-20 and 2% BSA (Roche Diagnostics GmbH, DE) for 0.5 h. 75 ng/ml of huCSF-1R-huFc chimera (soluble extracellular domain) was immobilized to plate for 1 h. Then dilutions of purified antibodies in PBS/0.05% Tween20/0.5% BSA were incubated for 1 h. After adding a mixture of 3 ng/ml CSF-1 (Biomol, DE, Cat. No. 60530), 50 ng/ml biotinylated anti CSF-1 clone BAF216 (R&D Systems, UK) and 1:5000 diluted streptavidin HRP (Roche Diagnostics GmbH, DE, Cat. No. 11089153001) for 1 h the plates were washed 6 times with PBST. Anti CSF-IR SC-02, clone 2-4A5 (Santa Cruz Biotechnology, US), which inhibits the ligand-receptor interaction, was used as positive control. Plates were developed with freshly prepared BM Blue® POD substrate solution (BM Blue®:3,3″-5,5″-Tetramethylbenzidine, Roche Diagnostics GmbH, DE, Cat. No. 11484281001) for 30 minutes at RT. Absorbance was measured at 370 nm. […] Anti CSF-IR SC-02, clone 2-4A5 (Santa Cruz Biotechnology, US), which inhibits the ligand-receptor interaction, was used as reference control.

[10] = biological target: T1, full-length wildtype CSF-1R (wt CSF-1R); experiment: cell-based or functional assay; remark: listed apart in the source
[11] = biological target: T1, full-length wildtype CSF-1R (wt CSF-1R); experiment: cell-based or functional assay; remark: listed apart in the source

T3 sequence (P07333 20-517 limits assumed): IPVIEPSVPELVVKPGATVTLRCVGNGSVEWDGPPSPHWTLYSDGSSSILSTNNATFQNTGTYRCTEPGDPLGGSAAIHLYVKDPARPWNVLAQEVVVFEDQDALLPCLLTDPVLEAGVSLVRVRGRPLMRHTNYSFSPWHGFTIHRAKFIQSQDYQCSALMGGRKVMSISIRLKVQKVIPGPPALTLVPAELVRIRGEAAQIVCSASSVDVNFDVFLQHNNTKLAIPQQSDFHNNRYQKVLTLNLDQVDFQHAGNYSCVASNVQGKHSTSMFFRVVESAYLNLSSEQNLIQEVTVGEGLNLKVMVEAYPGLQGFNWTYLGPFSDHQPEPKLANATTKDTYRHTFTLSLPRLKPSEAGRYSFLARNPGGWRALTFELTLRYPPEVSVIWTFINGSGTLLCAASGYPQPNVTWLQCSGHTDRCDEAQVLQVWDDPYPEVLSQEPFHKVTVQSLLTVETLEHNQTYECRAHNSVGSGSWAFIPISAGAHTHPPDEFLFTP
CSF-1R ECD (R&D-Systems 329-MR or in-house subcloned pCMV-presS-HisAvitag-hCSF-1R-ECD) (human), sequence (P07333 20-517 limits assumed): as above
mutant CSF-1R L301S Y969F (human), sequence (P07333 20-972 L301S/Y969F limits assumed): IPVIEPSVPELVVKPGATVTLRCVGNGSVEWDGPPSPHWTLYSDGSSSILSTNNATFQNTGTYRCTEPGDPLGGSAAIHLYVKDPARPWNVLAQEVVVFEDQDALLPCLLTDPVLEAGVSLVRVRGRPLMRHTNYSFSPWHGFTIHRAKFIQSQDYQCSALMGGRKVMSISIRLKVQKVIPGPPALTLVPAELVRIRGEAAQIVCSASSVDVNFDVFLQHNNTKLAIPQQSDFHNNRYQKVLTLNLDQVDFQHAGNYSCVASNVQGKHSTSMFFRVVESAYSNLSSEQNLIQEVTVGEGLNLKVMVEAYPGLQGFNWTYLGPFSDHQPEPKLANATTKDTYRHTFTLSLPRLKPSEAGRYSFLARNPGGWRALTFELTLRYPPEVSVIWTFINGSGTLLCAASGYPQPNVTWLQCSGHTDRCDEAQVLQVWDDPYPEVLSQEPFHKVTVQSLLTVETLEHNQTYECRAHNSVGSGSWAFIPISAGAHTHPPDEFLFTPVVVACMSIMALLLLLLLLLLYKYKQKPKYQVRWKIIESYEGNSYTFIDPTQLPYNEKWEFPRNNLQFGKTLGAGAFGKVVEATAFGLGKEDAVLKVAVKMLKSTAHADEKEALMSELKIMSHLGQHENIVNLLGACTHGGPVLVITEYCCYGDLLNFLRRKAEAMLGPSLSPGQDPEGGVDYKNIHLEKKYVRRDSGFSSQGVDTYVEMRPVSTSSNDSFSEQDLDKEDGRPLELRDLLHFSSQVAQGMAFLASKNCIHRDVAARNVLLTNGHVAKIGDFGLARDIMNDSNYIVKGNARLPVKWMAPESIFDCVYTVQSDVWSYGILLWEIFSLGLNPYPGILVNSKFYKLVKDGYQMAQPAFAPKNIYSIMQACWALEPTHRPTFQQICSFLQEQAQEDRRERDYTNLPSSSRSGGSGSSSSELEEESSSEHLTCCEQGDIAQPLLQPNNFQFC
T1 sequence (P07333 20-972 limits assumed): as the sequence (P07333 20-972 L301S/Y969F limits assumed) above, with S282L, F950Y counted along it
T2 sequence (P07333 20-296 limits assumed): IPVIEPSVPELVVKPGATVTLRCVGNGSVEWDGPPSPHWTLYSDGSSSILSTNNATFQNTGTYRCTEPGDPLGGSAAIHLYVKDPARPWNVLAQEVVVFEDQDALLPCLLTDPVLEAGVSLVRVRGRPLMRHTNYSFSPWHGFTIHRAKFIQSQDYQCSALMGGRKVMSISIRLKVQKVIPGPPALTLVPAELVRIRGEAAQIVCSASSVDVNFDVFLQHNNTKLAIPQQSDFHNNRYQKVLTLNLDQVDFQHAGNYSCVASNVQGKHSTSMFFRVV
huCSF-1R-huFc chimera (soluble extracellular domain) (human), sequence (P07333 20-517, change not shown): as the sequence (P07333 20-517 limits assumed) above
T4 sequence (P07333 20-517, change not shown): as the sequence (P07333 20-517 limits assumed) above

Anti CSF-1R SC-02, clone 2-4A5 (Santa Cruz Biotechnology, US) (antibody)
percentage (%) of expected binding response [1]: 42%
percentage (%) of expected binding response [2]: 37%
% Inhibition of growth of NIH3T3-mutant CSF-1R cells, 10 µg/ml antibody [3]: 34%
% survival of NIH3T3-mutant CSF-1R cells, 10 µg/ml antibody (CellTiterGlo) [3]: 66%
% Inhibition of growth of NIH3T3-wtCSF-1R cells, 10 µg/ml antibody [4]: 38%
% inhibition of CSF-1 induced growth of BeWo cells, 10 µg/ml antibody concentration [4]: 40%
% survival of NIH3T3-wtCSF-1R cells, 10 µg/ml antibody (CellTiterGlo) [4]: 62%
IC50 CSF-1R Phosphorylation (CSF-1-induced, NIH3T3-CSF-1R cells, ELISA of lysate) [4]: 0.412 µg/mL
IC50 of inhibition of survival of human monocytes with huCSF-1 (CellTiterGlo) [4]: 2400 pM
percentage (%) of expected binding response [5]: -2%
Kd [6]: 2730 pM
koff [6]: 0.00139 s⁻¹
kon [6]: 509000 M⁻¹ s⁻¹
t1/2 [6]: 8.31 min
IC50 [7]: 0.0309 µg/mL

goat polyclonal anti-CSF-1R antibody ab10676 (abcam)
percentage of inhibition the growth of NIH3T3-mutant CSF-1R L301S Y969F recombinant cells, up to 20 µg/ml [3]: < 0%

B1: <CSF-1R>10H2.2F12 (antibody, V domains shown)
VH: QVQLKQSGPGLVQPSQSLSITCTVSGFSLTTYGINWVRLSPGKGLEWLGMIWRGGNTDYNAAFMSRLTITKDNSKNHVFFQLNSLQPDDTAIYFCAKSGGLRLYYAMDYWGQGTSVTVSS
VL: DVVMTQPPLSLPVSLGDQASISCRSSQSLVHSNGNTYLHWYLQKPGQSPKLLIYKVSNRLSGVPDRFSGSGSGTDFTLKISRVEAEDLGVYFCSQSSHVPWTFGGGTKLEIRR
notes: Mouse monoclonal antibody from a hybridoma
binding result (CSF-1R ECD (D1-D3)): no binding
Kd [8]: 780 pM
koff [8]: 0.0004 s⁻¹
kon [8]: 520000 M⁻¹ s⁻¹
t1/2 [8]: 28.6 min
% Inhibition of growth of NIH3T3-mutant CSF-1R cells, 10 µg/ml antibody [3]: 65%
% survival of NIH3T3-mutant CSF-1R cells, 10 µg/ml antibody (CellTiterGlo) [3]: 35%
% Inhibition of growth of NIH3T3-wtCSF-1R cells, 10 µg/ml antibody [4]: 97%
% inhibition of CSF-1 induced growth of BeWo cells, 10 µg/ml antibody concentration [4]: 100%
% survival of NIH3T3-wtCSF-1R cells, 10 µg/ml antibody (CellTiterGlo) [4]: 3%
IC50 CSF-1R Phosphorylation (CSF-1-induced, NIH3T3-CSF-1R cells, ELISA of lysate) [4]: 0.0445 µg/mL
IC50 of inhibition of survival of human monocytes with huCSF-1 (CellTiterGlo) [4]: 600 pM

B2: <CSF-1R>9D11.2E8 (antibody, V domains shown)
VH: DVKLVESGGGLVKLGGSLKLSCAASGFTFSSYYMSWIRQTPDKRLELVAAIKTNGDNFDYPDTVKGRFTISRDNAKNTLYLQMNSLKSEDTALYYCARSQLLRYYAMDYWGQGTSVTVSS
VL: B1 VL with P7T, L60F, R82S, R112K
notes: Mouse monoclonal antibody from a hybridoma (NMRI mice), captured by anti mouse Fc-gamma in SPR; also called deposited antibody DSM ACC2920
IC50 [9]: 0.01 µg/mL
binding result (CSF-1R ECD (D1-D3)): no binding
Kd [8]: 770 pM
koff [8]: 0.00036 s⁻¹
kon [8]: 470000 M⁻¹ s⁻¹
t1/2 [8]: 32 min
IC50 CSF-1R Phosphorylation (CSF-1-induced, NIH3T3-CSF-1R cells, ELISA of lysate) [10]: 0.0728 µg/mL
IC50 of inhibition of survival of human monocytes with huCSF-1 (CellTiterGlo) [11]: 700 pM
